This note sets out measurements from the supplement of paper PMC9112550, “Optimization of the antimicrobial peptide Bac7 by deep mutational scanning” (BMC Biology, 2022).

The test system of this data set is Escherichia coli TOP10. The experiment in a line: shrunken log2 fold change of peptide-encoding DNA abundance (4.5 h post-induction vs induction); higher = less antimicrobial activity (less host growth inhibition). The note with it: time post-induction: 4.5 h; library: site-saturation at positions 5, 18, 19, 20.
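Further: peptides expressed intracellularly from a pBAD plasmid library in pooled LB shake-flask culture, induced with 0.3% L-arabinose, DNA abundance read by NGS, three biological replicates, DESeq2 with apeglm shrinkage.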

Turning to RRIRSRPPRLPRPRPRPNFKPRP, the “shrunken log2 fold change” value is -0.0661. For RRIRTRPPRLPRPRPRPVCIPRP the value was -0.195; for RRIRRRPPRLPRPRPRPGVMPRP, 0.245; for RRIRLRPPRLPRPRPRPYWCPRP, -0.00992.

For the sequence RRIRCRPPRLPRPRPRPYMPPRP, the “shrunken log2 fold change” value is -0.404. For RRIRLRPPRLPRPRPRPDWFPRP the value was -0.173; for RRIRDRPPRLPRPRPRPCDGPRP, -0.0192. With RRIRMRPPRLPRPRPRPARVPRP, the “shrunken log2 fold change” value amounted to 1.28. The figure for RRIRTRPPRLPRPRPRPCWMPRP is -0.259; for RRIRDRPPRLPRPRPRPEVEPRP it is 1.68; for RRIRIRPPRLPRPRPRPFHVPRP it is -0.121. The figure for RRIRLRPPRLPRPRPRPINSPRP is 0.0605; for RRIRYRPPRLPRPRPRPNEYPRP it is -0.519.

For RRIRWRPPRLPRPRPRPIGTPRP, the “shrunken log2 fold change” value was 0.175.

In the case of RRIRGRPPRLPRPRPRPYQCPRP, the “shrunken log2 fold change” value is -0.0235. For RRIRYRPPRLPRPRPRPEVDPRP the value was -0.191; for RRIRCRPPRLPRPRPRPAATPRP, 0.776.

Regarding RRIRARPPRLPRPRPRPEMGPRP, the “shrunken log2 fold change” value amounted to 1.12. For RRIRPRPPRLPRPRPRPKDNPRP the value was -0.248; for RRIRCRPPRLPRPRPRPKMQPRP, 0.103.

For the sequence RRIRMRPPRLPRPRPRPPVHPRP, the “shrunken log2 fold change” value stood at 0.595. For RRIRIRPPRLPRPRPRPRCYPRP the value was -0.586; for RRIRGRPPRLPRPRPRPYSAPRP, -0.29. The figure for RRIRIRPPRLPRPRPRPLCTPRP is -0.407. For RRIRWRPPRLPRPRPRPFWVPRP the value was 0.00637; for RRIRCRPPRLPRPRPRPGIMPRP, -0.594. In the case of RRIRQRPPRLPRPRPRPSDSPRP, the “shrunken log2 fold change” value is -0.0885.

RRIRSRPPRLPRPRPRPLVDPRP: the “shrunken log2 fold change” value is 0.115.

Regarding RRIRSRPPRLPRPRPRPQHHPRP, the “shrunken log2 fold change” value was -0.466. The figure for RRIRNRPPRLPRPRPRPVVCPRP is -0.06; for RRIRDRPPRLPRPRPRPIHHPRP it is -0.649; for RRIRLRPPRLPRPRPRPEREPRP it is 0.0872. The figure for RRIRPRPPRLPRPRPRPDTWPRP is 0.0185; for RRIRPRPPRLPRPRPRPKVWPRP it is 0.318. The figure for RRIRNRPPRLPRPRPRPHELPRP is -0.0632; for RRIRERPPRLPRPRPRPWKMPRP it is 0.00355; for RRIRRRPPRLPRPRPRPEPYPRP it is 0.0302.

Take RRIRFRPPRLPRPRPRPQYHPRP: the “shrunken log2 fold change” value was -1.15. The figure for RRIRERPPRLPRPRPRPIYGPRP is 0.0231; for RRIRSRPPRLPRPRPRPNLFPRP it is -0.0477. On to RRIRKRPPRLPRPRPRPMNIPRP, for which the “shrunken log2 fold change” value is -0.213. The figure for RRIRPRPPRLPRPRPRPSLDPRP is -0.0512; for RRIRGRPPRLPRPRPRPFFHPRP it is -0.0568; for RRIRLRPPRLPRPRPRPPGFPRP it is 0.278. For RRIRRRPPRLPRPRPRPAYLPRP, the “shrunken log2 fold change” value is -0.35. As to RRIRQRPPRLPRPRPRPDWGPRP, the “shrunken log2 fold change” value is -0.0197.

Consider RRIRYRPPRLPRPRPRPPKFPRP, for which the “shrunken log2 fold change” value is -0.0892. As for RRIRLRPPRLPRPRPRPEQFPRP, the “shrunken log2 fold change” value was -0.141.

For RRIRQRPPRLPRPRPRPWKWPRP, the “shrunken log2 fold change” value is -0.299.

On to RRIRSRPPRLPRPRPRPKNKPRP, for which the “shrunken log2 fold change” value was -0.242.

For the sequence RRIRARPPRLPRPRPRPLHPPRP, the “shrunken log2 fold change” value was 0.256. The figure for RRIRLRPPRLPRPRPRPWITPRP is -0.028; for RRIRMRPPRLPRPRPRPIFAPRP it is 0.556; for RRIRSRPPRLPRPRPRPLMVPRP it is 0.134. The figure for RRIRSRPPRLPRPRPRPLCTPRP is 0.0479; for RRIRLRPPRLPRPRPRPVKPPRP it is 0.0377. Turning to RRIRGRPPRLPRPRPRPYERPRP, the “shrunken log2 fold change” value is -1.8. For RRIRCRPPRLPRPRPRPSFKPRP, the “shrunken log2 fold change” value was -0.75.

As to RRIRKRPPRLPRPRPRPKWKPRP, the “shrunken log2 fold change” value was determined as 0.479.

Consider RRIRCRPPRLPRPRPRPNSDPRP, for which the “shrunken log2 fold change” value is -0.255. The figure for RRIRTRPPRLPRPRPRPAEHPRP is -0.0944; for RRIRCRPPRLPRPRPRPARDPRP it is 1.84; for RRIRIRPPRLPRPRPRPEGLPRP it is -0.185. Take RRIRWRPPRLPRPRPRPNNNPRP: the “shrunken log2 fold change” value is -0.514. The figure for RRIRIRPPRLPRPRPRPGNSPRP is -1.05; for RRIRARPPRLPRPRPRPNASPRP it is 0.711; for RRIRHRPPRLPRPRPRPYNAPRP it is -0.00175. The figure for RRIRTRPPRLPRPRPRPTLGPRP is 0.0554; for RRIRERPPRLPRPRPRPVHKPRP it is -0.581; for RRIRPRPPRLPRPRPRPMDHPRP it is 0.0131. Take RRIRLRPPRLPRPRPRPMFNPRP: the “shrunken log2 fold change” value was -0.524. For RRIRARPPRLPRPRPRPYFLPRP the value was -0.557. Regarding RRIRGRPPRLPRPRPRPPHWPRP, the “shrunken log2 fold change” value is 0.96. The figure for RRIRARPPRLPRPRPRPLQAPRP is 0.674. The figure for RRIRYRPPRLPRPRPRPGASPRP is -0.313.

In the case of RRIRDRPPRLPRPRPRPFAQPRP, the “shrunken log2 fold change” value is 0.0821. The figure for RRIRVRPPRLPRPRPRPTKWPRP is 0.0808. For RRIRGRPPRLPRPRPRPYSMPRP the value was 0.00971; for RRIRKRPPRLPRPRPRPEIRPRP, 0.171; for RRIRSRPPRLPRPRPRPVYFPRP, -0.347. The figure for RRIRNRPPRLPRPRPRPHTDPRP is -0.373; for RRIRARPPRLPRPRPRPMFKPRP it is -0.106; for RRIRYRPPRLPRPRPRPMSSPRP it is -0.0121. RRIRSRPPRLPRPRPRPQTSPRP: the “shrunken log2 fold change” value was -0.157. For RRIRKRPPRLPRPRPRPYRCPRP the value was -0.12; for RRIRFRPPRLPRPRPRPVHPPRP, 0.037. For RRIRERPPRLPRPRPRPLPTPRP the value was -0.0242.

Consider RRIRDRPPRLPRPRPRPRMDPRP, for which the “shrunken log2 fold change” value is -0.0354.

RRIRMRPPRLPRPRPRPDYIPRP: the “shrunken log2 fold change” value was -0.354. RRIRGRPPRLPRPRPRPKFQPRP: the “shrunken log2 fold change” value was 0.528.

Consider RRIRFRPPRLPRPRPRPNYNPRP, for which the “shrunken log2 fold change” value is -1.12. For RRIRPRPPRLPRPRPRPRKSPRP the value was 0.112.

In the case of RRIRVRPPRLPRPRPRPNCEPRP, the “shrunken log2 fold change” value amounted to 3.97.

On to RRIRVRPPRLPRPRPRPHCAPRP, for which the “shrunken log2 fold change” value is -0.179.

RRIRYRPPRLPRPRPRPFCGPRP: the “shrunken log2 fold change” value was -0.133. As for RRIRVRPPRLPRPRPRPFKPPRP, the “shrunken log2 fold change” value is -0.132. In the case of RRIRSRPPRLPRPRPRPSDPPRP, the “shrunken log2 fold change” value was -0.397. The figure for RRIRCRPPRLPRPRPRPGWGPRP is 0.42. The figure for RRIRVRPPRLPRPRPRPCATPRP is 0.0911; for RRIRTRPPRLPRPRPRPFENPRP it is -0.0132; for RRIRRRPPRLPRPRPRPMPSPRP it is 0.136.

With RRIRKRPPRLPRPRPRPEDKPRP, the “shrunken log2 fold change” value was 0.0421. For RRIRHRPPRLPRPRPRPRNSPRP the value was -0.05; for RRIRNRPPRLPRPRPRPRDLPRP, 0.186; for RRIRLRPPRLPRPRPRPHEIPRP, -0.298.

RRIRVRPPRLPRPRPRPLESPRP: the “shrunken log2 fold change” value came to 0.114. For RRIRQRPPRLPRPRPRPTLGPRP the value was 0.269; for RRIRKRPPRLPRPRPRPDCEPRP, 1.96; for RRIRRRPPRLPRPRPRPRYDPRP, 0.0442.

Take RRIRVRPPRLPRPRPRPDSQPRP: the “shrunken log2 fold change” value was -0.116. Turning to RRIRSRPPRLPRPRPRPGKDPRP, the “shrunken log2 fold change” value came to 0.099. For RRIRIRPPRLPRPRPRPFNYPRP, the “shrunken log2 fold change” value is -0.149. The figure for RRIRWRPPRLPRPRPRPVHIPRP is -0.091. The figure for RRIRARPPRLPRPRPRPQERPRP is 0.0703; for RRIRQRPPRLPRPRPRPPADPRP it is 0.362. For RRIRIRPPRLPRPRPRPGHTPRP the value was -0.165; for RRIRERPPRLPRPRPRPVAHPRP, 0.0475. For RRIRNRPPRLPRPRPRPIYAPRP, the “shrunken log2 fold change” value was -0.71. For RRIRVRPPRLPRPRPRPLGCPRP the value was -0.0466; for RRIRDRPPRLPRPRPRPIFGPRP, 0.0916. For RRIRHRPPRLPRPRPRPRYMPRP the value was -0.559; for RRIRIRPPRLPRPRPRPFSAPRP, -0.517. The figure for RRIRIRPPRLPRPRPRPDTEPRP is -0.853; for RRIRMRPPRLPRPRPRPIMFPRP it is -0.103; for RRIRSRPPRLPRPRPRPLRVPRP it is 1.29.
